Reference: IntAct's records for PubMed 17113272

B1: Armadillo segment polarity protein (Drosophila melanogaster (Fruit fly)), P18824 (parent)
chain: MSYMPAQNRTMSHNNQYNPPDLPPMVSAKEQTLMWQQNSYLGDSGIHSGAVTQVPSLSGKEDEEMEGDPLMFDLDTGFPQNFTQDQVDDMNQQLSQTRSQRVRAAMFPETLEEGIEIPSTQFDPQQPTAVQRLSEPSQMLKHAVVNLINYQDDAELATRAIPELIKLLNDEDQVVVSQAAMMVHQLSKKEASRHAIMNSPQMVAALVRAISNSNDLESTKAAVGTLHNLSHHRQGLLAIFKSGGIPALVKLLSSPVESVLFYAITTLHNLLLHQDGSKMAVRLAGGLQKMVTLLQRNNVKFLAIVTDCLQILAYGNQESKLIILASGGPNELVRIMRSYDYEKLLWTTSRVLKVLSVCSSNKPAIVDAGGMQALAMHLGNMSPRLVQNCLWTLRNLSDAATKVEGLEALLQSLVQVLGSTDVNVVTCAAGILSNLTCNNQRNKATVCQVGGVDALVRTIINAGDREEITEPAVCALRHLTSRHVDSELAQNAVRLNYGLSVIVKLLHPPSRWPLIKAVIGLIRNLALCPANHAPLREHGAIHHLVRLLMRAFQDTERQRSSIATTGSQQPSAYADGVRMEEIVEGTVGALHILARESHNRALIRQQSVIPIFVRLLFNEIENIQRVAAGVLCELAADKEGAEIIEQEGATGPLTDLLHSRNEGVATYAAAVLFRMSEDKPQDYKKRLSIELTNSLLREDNNIWANADLGMGPDLQDMLGPEEAYEGLYGQGPPSVHSSHGGRAFHQQGYDTLPIDSMQGLEISSPVGGGGAGGAPGNGGAVGGASGGGGNIGAIPPSGAPTSPYSMDMDVGEIDAGALNFDLDAMPTPPNDNNNLAAWYDTDC
partner: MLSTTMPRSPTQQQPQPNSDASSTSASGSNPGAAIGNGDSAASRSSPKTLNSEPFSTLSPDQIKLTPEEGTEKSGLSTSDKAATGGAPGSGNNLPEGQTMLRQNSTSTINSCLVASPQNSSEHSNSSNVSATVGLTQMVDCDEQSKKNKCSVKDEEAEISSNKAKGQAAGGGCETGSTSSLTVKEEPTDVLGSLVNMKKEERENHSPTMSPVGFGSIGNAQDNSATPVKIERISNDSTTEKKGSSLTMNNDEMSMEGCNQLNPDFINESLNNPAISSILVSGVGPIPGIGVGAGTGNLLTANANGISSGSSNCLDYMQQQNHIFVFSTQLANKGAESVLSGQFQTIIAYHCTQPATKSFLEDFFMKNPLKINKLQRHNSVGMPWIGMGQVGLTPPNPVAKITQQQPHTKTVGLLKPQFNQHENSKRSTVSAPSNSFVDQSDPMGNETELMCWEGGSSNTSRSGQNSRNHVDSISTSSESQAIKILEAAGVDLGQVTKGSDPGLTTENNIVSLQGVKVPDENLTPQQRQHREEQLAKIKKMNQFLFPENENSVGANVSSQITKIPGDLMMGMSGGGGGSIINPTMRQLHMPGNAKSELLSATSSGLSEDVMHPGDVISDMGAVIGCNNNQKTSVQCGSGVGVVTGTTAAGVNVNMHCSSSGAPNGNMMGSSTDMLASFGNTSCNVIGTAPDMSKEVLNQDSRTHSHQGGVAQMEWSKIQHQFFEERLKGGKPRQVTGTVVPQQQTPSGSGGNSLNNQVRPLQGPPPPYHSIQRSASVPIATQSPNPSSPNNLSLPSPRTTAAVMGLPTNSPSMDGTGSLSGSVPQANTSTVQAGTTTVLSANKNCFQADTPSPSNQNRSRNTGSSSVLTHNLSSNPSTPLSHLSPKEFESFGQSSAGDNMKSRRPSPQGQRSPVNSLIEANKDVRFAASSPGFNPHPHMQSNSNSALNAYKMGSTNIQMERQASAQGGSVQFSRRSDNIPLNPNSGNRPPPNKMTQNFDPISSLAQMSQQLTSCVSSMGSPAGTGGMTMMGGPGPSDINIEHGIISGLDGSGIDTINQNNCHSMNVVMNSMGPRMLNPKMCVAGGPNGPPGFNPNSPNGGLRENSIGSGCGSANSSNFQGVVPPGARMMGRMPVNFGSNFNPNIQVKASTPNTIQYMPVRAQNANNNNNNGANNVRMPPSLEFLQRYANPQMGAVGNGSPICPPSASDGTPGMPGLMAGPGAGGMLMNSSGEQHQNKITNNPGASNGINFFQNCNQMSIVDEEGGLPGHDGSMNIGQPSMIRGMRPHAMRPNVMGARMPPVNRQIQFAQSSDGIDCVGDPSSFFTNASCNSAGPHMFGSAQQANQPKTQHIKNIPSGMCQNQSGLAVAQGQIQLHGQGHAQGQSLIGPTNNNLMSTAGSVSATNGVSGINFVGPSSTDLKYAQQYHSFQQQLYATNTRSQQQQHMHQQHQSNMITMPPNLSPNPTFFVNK
B2: Armadillo segment polarity protein (Drosophila melanogaster (Fruit fly)), P18824 (parent)
chain: B1 chain
partner: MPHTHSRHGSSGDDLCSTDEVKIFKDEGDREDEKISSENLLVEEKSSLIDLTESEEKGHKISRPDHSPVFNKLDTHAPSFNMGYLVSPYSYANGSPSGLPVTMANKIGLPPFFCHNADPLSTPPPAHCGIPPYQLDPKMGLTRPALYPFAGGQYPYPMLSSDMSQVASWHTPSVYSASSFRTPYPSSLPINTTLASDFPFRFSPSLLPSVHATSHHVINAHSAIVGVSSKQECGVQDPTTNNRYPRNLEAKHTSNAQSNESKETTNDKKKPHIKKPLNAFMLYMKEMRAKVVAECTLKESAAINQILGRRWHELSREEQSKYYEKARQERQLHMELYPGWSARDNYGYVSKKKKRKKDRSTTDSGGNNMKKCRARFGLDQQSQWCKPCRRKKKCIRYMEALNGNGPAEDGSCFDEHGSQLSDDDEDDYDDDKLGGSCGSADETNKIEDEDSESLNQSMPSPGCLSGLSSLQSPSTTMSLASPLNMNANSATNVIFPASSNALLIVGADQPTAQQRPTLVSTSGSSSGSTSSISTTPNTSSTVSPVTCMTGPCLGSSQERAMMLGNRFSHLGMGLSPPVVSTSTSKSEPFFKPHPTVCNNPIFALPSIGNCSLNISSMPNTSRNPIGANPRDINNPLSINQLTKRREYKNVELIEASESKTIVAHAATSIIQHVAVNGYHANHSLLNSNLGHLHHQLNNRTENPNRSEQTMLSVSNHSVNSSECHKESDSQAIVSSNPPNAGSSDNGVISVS
B3: Catenin beta-1 (Mus musculus), Q02248 (parent)
chain: MATQADLMELDMAMEPDRKAAVSHWQQQSYLDSGIHSGATTTAPSLSGKGNPEEEDVDTSQVLYEWEQGFSQSFTQEQVADIDGQYAMTRAQRVRAAMFPETLDEGMQIPSTQFDAAHPTNVQRLAEPSQMLKHAVVNLINYQDDAELATRAIPELTKLLNDEDQVVVNKAAVMVHQLSKKEASRHAIMRSPQMVSAIVRTMQNTNDVETARCTAGTLHNLSHHREGLLAIFKSGGIPALVKMLGSPVDSVLFYAITTLHNLLLHQEGAKMAVRLAGGLQKMVALLNKTNVKFLAITTDCLQILAYGNQESKLIILASGGPQALVNIMRTYTYEKLLWTTSRVLKVLSVCSSNKPAIVEAGGMQALGLHLTDPSQRLVQNCLWTLRNLSDAATKQEGMEGLLGTLVQLLGSDDINVVTCAAGILSNLTCNNYKNKMMVCQVGGIEALVRTVLRAGDREDITEPAICALRHLTSRHQEAEMAQNAVRLHYGLPVVVKLLHPPSHWPLIKATVGLIRNLALCPANHAPLREQGAIPRLVQLLVRAHQDTQRRTSMGGTQQQFVEGVRMEEIVEGCTGALHILARDVHNRIVIRGLNTIPLFVQLLYSPIENIQRVAAGVLCELAQDKEAAEAIEAEGATAPLTELLHSRNEGVATYAAAVLFRMSEDKPQDYKKRLSVELTSSLFRTEPMAWNETADLGLDIGAQGEALGYRQDDPSYRSFHSGGYGQDALGMDPMMEHEMGGHHPGADYPVDGLPDLGHAQDLMDGLPPGDSNQLAWFDTDL
partner: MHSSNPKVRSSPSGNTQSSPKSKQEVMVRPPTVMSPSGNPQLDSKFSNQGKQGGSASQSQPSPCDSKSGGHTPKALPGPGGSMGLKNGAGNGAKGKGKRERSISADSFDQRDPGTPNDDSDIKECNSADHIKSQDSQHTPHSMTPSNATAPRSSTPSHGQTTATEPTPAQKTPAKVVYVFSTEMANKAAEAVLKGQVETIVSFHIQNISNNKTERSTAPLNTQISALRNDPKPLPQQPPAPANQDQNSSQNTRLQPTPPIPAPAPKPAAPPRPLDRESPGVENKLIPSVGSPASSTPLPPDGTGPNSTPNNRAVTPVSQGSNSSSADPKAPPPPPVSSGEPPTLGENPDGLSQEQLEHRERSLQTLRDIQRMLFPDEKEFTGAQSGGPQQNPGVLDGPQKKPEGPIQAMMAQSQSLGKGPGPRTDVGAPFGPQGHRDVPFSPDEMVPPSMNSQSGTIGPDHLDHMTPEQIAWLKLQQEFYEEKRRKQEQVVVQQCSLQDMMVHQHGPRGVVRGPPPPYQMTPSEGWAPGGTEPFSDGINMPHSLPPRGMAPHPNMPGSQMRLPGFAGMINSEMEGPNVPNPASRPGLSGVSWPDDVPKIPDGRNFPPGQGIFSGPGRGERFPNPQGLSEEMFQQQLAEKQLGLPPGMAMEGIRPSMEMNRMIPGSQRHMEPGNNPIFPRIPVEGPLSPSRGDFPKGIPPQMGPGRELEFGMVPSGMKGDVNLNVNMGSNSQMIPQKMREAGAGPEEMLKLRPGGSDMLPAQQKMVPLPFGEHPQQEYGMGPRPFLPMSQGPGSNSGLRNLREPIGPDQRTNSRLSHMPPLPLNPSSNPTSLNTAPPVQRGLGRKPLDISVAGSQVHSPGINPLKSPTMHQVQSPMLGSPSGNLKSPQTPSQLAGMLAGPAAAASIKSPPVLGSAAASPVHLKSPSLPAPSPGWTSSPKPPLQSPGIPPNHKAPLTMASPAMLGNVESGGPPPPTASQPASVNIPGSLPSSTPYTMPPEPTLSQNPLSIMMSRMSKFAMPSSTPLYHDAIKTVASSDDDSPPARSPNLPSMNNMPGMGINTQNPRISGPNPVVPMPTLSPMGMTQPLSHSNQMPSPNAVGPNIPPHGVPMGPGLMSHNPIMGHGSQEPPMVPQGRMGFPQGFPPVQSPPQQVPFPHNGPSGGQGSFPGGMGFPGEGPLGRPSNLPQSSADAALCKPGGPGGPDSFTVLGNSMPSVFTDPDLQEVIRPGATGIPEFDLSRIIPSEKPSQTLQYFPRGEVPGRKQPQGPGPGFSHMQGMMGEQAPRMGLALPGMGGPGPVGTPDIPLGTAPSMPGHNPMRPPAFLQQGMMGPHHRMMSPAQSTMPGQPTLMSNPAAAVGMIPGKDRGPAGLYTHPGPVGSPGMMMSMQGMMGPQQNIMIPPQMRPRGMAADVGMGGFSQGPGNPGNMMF

Variants of: B1
Conditions: with bcl9_drome lgs
For D172A, the “effect of a mutation on the interaction” value was “disrupting interaction”.

Variants of: B2
Conditions: with pang1_drome pan
D172A was tested, and the “effect of a mutation on the interaction” value was “disrupting interaction”.

Variants of: B3
Conditions: with bcl9_human BCL9, O00512
D164A was tested, and the “effect of a mutation on the interaction” value was “disrupting interaction”.
